Measured values as given in paper PMC5349899 (Oncotarget, 2016).

T1: TGF-β2
T1 sequence (P61812 303-414, species assumed, looked up): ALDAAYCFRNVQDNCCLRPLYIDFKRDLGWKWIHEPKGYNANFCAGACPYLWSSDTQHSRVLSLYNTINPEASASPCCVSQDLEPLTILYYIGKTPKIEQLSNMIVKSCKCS

B1: trivalent TGF-β receptor trap RER (RII-BGE-RII) (other)
chain: NGAVKFPQLCKFCDVRFSTCDNQKSCMSNCSITSICEKPQEVCVAVWRKNDENITLETVCHDPKLPYHDFILEDAASPKCIMKEKKKPGETFFMCSCSSDECNDNIIFSEEYNTSNPDGPEPSTRCELSPINASHPVQALMESFTVLSGCASRGTTGLPREVHVLNLRSTDQGPGQRQREVTLHLNPIASVHTHHKPIVFLLNSPQPLVWHLKTERLAAGVPRLFLVSEGSVVQFPSGNFSLTAETEERNFPQENEHLLRWAQKEYGAVTSFTELKIARNIYIKVGEDQVFPPTCNIGKNFLSLNYLAEYLQPKAAEGCVLPSQPHEKEVHIIELITPSSNPYSAFQVDIIVDIRPAQEDPEVVKNLVLILKCKKSVNWVIKSFDVKGNLKVIAPNSIGFGKESERSMTMTKLVRDDIPSTQENLMKWALDNGYRPVTSYTMAPVANRFHLRLENNEEMRDEEVHTIPPELRILLDPDNGAVKFPQLCKFCDVRFSTCDNQKSCMSNCSITSICEKPQEVCVAVWRKNDENITLETVCHDPKLPYHDFILEDAASPKCIMKEKKKPGETFFMCSCSSDECNDNIIFSEEYNTSNPD
modifications: N-linked glycans (as isolated, glycosylated)
B2: bivalent TGF-β receptor trap ER (BGE-RII) (other)
chain: GPEPSTRCELSPINASHPVQALMESFTVLSGCASRGTTGLPREVHVLNLRSTDQGPGQRQREVTLHLNPIASVHTHHKPIVFLLNSPQPLVWHLKTERLAAGVPRLFLVSEGSVVQFPSGNFSLTAETEERNFPQENEHLLRWAQKEYGAVTSFTELKIARNIYIKVGEDQVFPPTCNIGKNFLSLNYLAEYLQPKAAEGCVLPSQPHEKEVHIIELITPSSNPYSAFQVDIIVDIRPAQEDPEVVKNLVLILKCKKSVNWVIKSFDVKGNLKVIAPNSIGFGKESERSMTMTKLVRDDIPSTQENLMKWALDNGYRPVTSYTMAPVANRFHLRLENNEEMRDEEVHTIPPELRILLDPDNGAVKFPQLCKFCDVRFSTCDNQKSCMSNCSITSICEKPQEVCVAVWRKNDENITLETVCHDPKLPYHDFILEDAASPKCIMKEKKKPGETFFMCSCSSDECNDNIIFSEEYNTSNPD
modifications: N-linked glycans (as isolated, glycosylated)

Target: T1, TGF-β2
Test: cell-based or functional assay

Binder	IC50 of inhibition of PAI-1 luciferase reporter activity in Mv1Lu mink lung epithelial cells induced with 20 pM TGF-β2
B1	70 pM
B2	1200 pM
